Reference: patent publication US20180230212A1

What was measured:
[1] = biological target: human CD98hc as expressed on normal blood cells, HUVEC cells and untreated U937 / THP-1 cells (human CD98hc having an N-glycan) (human) (UniProt P08195); test: FACS on untreated U937 cells, MEM-108 at 2.5 µg/ml, PE anti-mouse IgG
[2] = biological target: human CD98hc as expressed on normal blood cells, HUVEC cells and untreated U937 / THP-1 cells (human CD98hc having an N-glycan) (human) (UniProt P08195); test: FACS on untreated THP-1 cells, MEM-108 at 2.5 µg/ml, PE anti-mouse IgG
[3] = biological target: human CD98hc with incomplete glycosylation (cells treated with tunicamycin, thapsigargin or bortezomib) (human) (UniProt P08195); test: FACS on tunicamycin-treated U937 cells, MEM-108 at 2.5 µg/ml, PE anti-mouse IgG
[4] = biological target: human CD98hc with incomplete glycosylation (cells treated with tunicamycin, thapsigargin or bortezomib) (human) (UniProt P08195); test: FACS on tunicamycin-treated THP-1 cells, MEM-108 at 2.5 µg/ml, PE anti-mouse IgG

MFI (corrected value obtained by dividing with an isotype control) (MFI / MFI of isotype control) [1]: 11.8 | MFI (corrected value obtained by dividing with an isotype control) (MFI / MFI of isotype control) [2]: 29.4 | MFI (corrected value obtained by dividing with an isotype control) (MFI / MFI of isotype control) [3]: 8.3 | MFI (corrected value obtained by dividing with an isotype control) (MFI / MFI of isotype control) [4]: 29.1
Substance: MEM-108 antibody (anti-human CD98 antibody, Biolegend)
